{
  "source": "patent US20230374078A1",
  "about": "(Janssen / Centocor, published 2023)",
  "binders": {"B1": {"name": "mAb PGT145 (antibody, V domains shown)", "VH": "QVQLVQSGAEVKKPGSSVKVSCKASGNSFSNHDVHWVRQATGQGLEWMGWMSHEGDKTGLAQKFQGRVTITRDSGASTVYMELRGLTADDTAIYYCLTGSKHRLRDYFLYNEYGPNYEEWGDYLATLDVWGHGTAVTVSS", "VL": "EVVITQSPLFLPVTPGEAASLSCKCSHSLQHSTGANYLAWYLQRPGQTPRLLIHLATHRASGVPDRFSGSGSGTDFTLKISRVESDDVGTYYCMQGLHSPWTFGQGTKVEIKR"}},
  "molecular_target": "C97ZA_SOSIP_L556P_T651F_M535N (HIV-1 clade C strain C97ZA)",
  "test": "AlphaLISA on crude cell culture supernatant",
  "data": [
    {"binder": "B1", "values": [
      {"measurement": "trimer yield (PGT145 AlphaLISA signal), fold over the C97ZA_SOSIP backbone", "result": 5, "unit": "fold"}
    ]}
  ]
}
